Assay: yeast display, Sf9 membrane polyspecificity reagent, FACS + sequencing; frameworks hold sequencing errors
In short: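 Galactose induction of a Saccharomyces cerevisiae BJ5465 synthetic nanobody display library ran 36–48 hours. The cells were then stained for 1 hour at 4 °C with 10% biotinylated, detergent-solubilized Sf9 membrane reagent, pulled down on streptavidin microbeads and FACS-sorted into low and high (top ~1%) gates on expression and reagent-binding fluorescence. Labels for polyreactivity follow the gate of origin.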

Row | Sequence | polyreactivity (PSR sort gate)
1 | QVQLVESGGGLVQAGGSLRLSCAASGSIFSYYAMGWYRQAPGKERELVAAINGGDSTNYADSVKGRFTISRDNAKNTVYLQMNSLKPEDTAVYYCAADNYDAALLFEYYYWGQGTQVTVSS | low polyreactivity
2 | QVQLVESGGGLVQAGGSLRLSCAASGSTYYGNAMGWYRQAPGKERQLVAAIRSRGGSTYYADSVKGRFTISRDNAKNTVYLQMNSLKPEDPAVYYCDAKQPSWKYAYYYWGQGTQVTVSS | high polyreactivity
3 | QVQLVESGGGLVQAGGSLRLSSAASGRTFLRYAMGWYRQAPGKVRELVAAISWSGGRTYYADSVKGRFRISRDLAKNTVYLQMNSLKTEVTAVYYCNKGVLYGAHFYYWGQGTQVTGSS | high polyreactivity
4 | QVQLVESGGGLVQAGGSLRLSCAASGSIFVKYAMGWYRQAPGKERELVAAISRSGTRTYYADSVKGRFTISRDNAKNTVYLQMNSLKPEDTAVYYCAAAATTVRAYEYWGQGTQVTLSS | high polyreactivity
5 | QVQLVESGGGLVQAGGSLRFSCAASGSIFGYYSLGWYRQAPGKERELVASITFRDGSTYYADSVKGRFTISRDNAKNTVYLQMNSLKPEDTAVYYCAARYYRRYFSDYDYWGQGTQVTVSS | low polyreactivity
6 | QVQLVESGGGLDQAGGSLRLSCAASGSTFTRNAMRWYRQAPGKERELVATISSGGSTNYADSVKGRFTISRDNAKNTVYLQMNSLKPEDTAVYYCAKRSLYSYYYWGQGTQVTVSS | high polyreactivity
7 | QVQLVESGGGLVQAGGSLRLSCAASGSTFRYNAMGWYRQAPGKERELVASINRGGGGTYYADSVKGRFTISRDNAKKTVYLQMNSLKPEDTAVYYCAKARFTRGTWFYYWGQGTQVTVSS | high polyreactivity
8 | QVQLVESGGGLVQAGGSLRLSCAASGSTFGDYAMGGYRQAPGKERELVAANDQNGGSTYYADSVKGRITISRDNAKNTVYLQMNSLIPEDTAVYYCAAESIYDWYDYGGQGTQVTVSS | low polyreactivity
9 | QVQLVESGGGFDQAGGSLRLSCAASGSIFFYYVMGWYRQAPGKERELVAVISSGGGSTYYADSVKGRFTISRDNAKNTVYLQMNSLKPEDTAVYYCAAGTYYKFYYWGQGTQVTVSS | high polyreactivity
10 | QVQLVESGGGLVQAGGSLRLSCAASGSTFGRNAMGWYRQAPGKDRELVAAINSGGGTYYADSVKGRFTISRDNAKNTVYLQMNSLKPEDTAVYDCAAARGYGNYVYWGQGTQVTVSS | low polyreactivity
11 | QVQLVESGGGLVQAGGSLRLSCAASGSTFDGNTMGWYRQAPGKERELVAAISGSGGSTYYADSVKGRFTISRDNAKKTVYLQMNSLKPEDTAVYYCAARRIHTTSSRGYYWGQGTQVTVSS | high polyreactivity
12 | QVQHVESGGGLVQAGGSLRLSCAASGFNFAYNIMGWYRQAPGKERELVADISGTGSTNYADSVKGRFTISRDNAKNTVYLQMNSLKPEDTAVYYCATSGDRLVWGQGTQVTVSS | low polyreactivity
13 | QVQLVESGGGLVQAGGSLRLSCAASGSIFKYNDMGWYRQAPGKEREWVAAIRLGGGSTSYADSVKGRFTISRDNAKNTVYLQMNSLKPEDTAVYYCNAYAVYLRYLWYDYWGQGTQVTVSS | low polyreactivity
14 | QVQLVESGGGLVQAGGTLRLSCAASGRTFVPYAMGWYRQAPGKERELVATISSSGGSTYYADSVKGRFTISRDNSKNTVYLQMNSLKPEDTAVYYCATADRWSSSYYRSVRWYHYDYWGQGTQVTVSS | low polyreactivity
15 | QVQLVESGGGLVQAGGSLRLSCAASGSIFLNNAMGWYRQAPGKERELVAAITRNVGSTYYADSVKGRFTISRDNEKNTVYLQMNSLKPEDTAVYYCAADRRRRYDYWGQGTQVTVSS | low polyreactivity
16 | QVQLVESGGGLVQAGGSLRLSCAASGFTFSLYGMGWYRQAPGKERELVAAIRSGGSRNYADSVKGRFTISRDNAKNTVYLQMNSLKPEDTAVYYCATDIHSVHNNRDKHDYDYWGQGTQVTVSS | low polyreactivity
17 | QVQLVDSGGGLVQAGGSLRLSCPASGRTFFNNVMGWSRQAPGKEREWVAAISKSGTRTYYADSVKGRFTISRDNAKNTVYLQMNSLKPEDTAVYYCATGPYLRTSRYYYWGQGTQVTVSS | high polyreactivity
18 | QVQLVESGGGLVQAGGSLRLSGAASGITIKRYAMGWYRQAPGKEREFVATISQSGTSTYYADSVKGRFTISRDNAQNTVYLQMNSLKPEDTAVYYCAADYIGYWYGYYSWGQGTQVTVSS | low polyreactivity
19 | QVQLVESGGGLVQAGGSLRLSCAASGSTFLVYAMGWYRQAPGKERELVAVITYSTVRTYYADSVKGRFTISRDNAKNTVYLQMNSLKPEDTAVYYCNADKEFAVLGQGMDYWGQGTQVTVSS | low polyreactivity
20 | QVQLVESGGGLVQAGGSLRLSCAASGNIFRRYAMGWYRQAPGKERELVAAISISGGNTYYADSVKGRFTISRDNAKNTVYLQMNSLKPEDTAVYYCNAVGRYSEYGYWGQGTQVTVSS | high polyreactivity
21 | QVQLVESGGGLVQAGGSLRLSCAASGFTSTINAMGWYRQAPGKERELVAAISVSSGSTYYADSVKGRFTISRDNAKNTVYLQMNSLKPEDTAVYYCATGISRDYIYIILRYDYWGQGTQVTVSS | low polyreactivity
22 | QVQLVESGGGLVQAGGSLRLSCAASGFTYGYYAMGGYRQAPGKERELVAAITNGGRTNYADSVKGRFTISRDNAKNTVYLQMNSLKPEDTAVYYCATDHYWSREGYWGQGTQVTVSS | low polyreactivity

Row | Sequence | polyreactivity (PSR sort gate)
23 | QVQLVESAGGLVQAGGSLRLSCAASGSIFSRNAMGWYRPAPGKERELVAAITWSGGSTYYADSVKGRFTISRDNAKNTVYLQMNSLKPEDTAVYYCNAKRSSRIKQLEYDYWGQGTQVTVSS | high polyreactivity
24 | QVQLVESGGGLVQAGGSLRLSSAASGFIFTWYAMGWYIQAPGKERELVAAISSSGGRTYYADSVKGRFTISRDNAKNTVYLQMNSLKPEDSAVYYCTAVKFIRQHSEYDYWGQGTLVTVSS | high polyreactivity
25 | QVQLVESGGGLVQAGGSLRLSCAASGRIFPYYAMGWYRQAPGKDRELVAAISWSGGRTYYADSVKGRFTISRDYAKNTVYLQMNSLKPDDNAVYFCAAGHSYRPYYYYGEYDYWGQGTQVTVSS | high polyreactivity
26 | QVQLVESGGGLVQAGGSLRLSCAASGSIFLYYAMGWYRQAPGKVRALLAAISWDGGSTYYADSVKGRFTISRDNAKNTVYLQMNSLKPEDTAVYYCNKAPYYYLPHSLRYNYWGQGTQVTVSS | high polyreactivity
27 | QVQLQESGGGLVQAGGSLRLSCAASGYISQSSVMGWYRQAPGKEREFVASISYGATTYYADSVKGRYTISRDNAKDTVYLQTNSPKPEVTAVYYCAVCVKRGFSHRYWGQGTQVTVSS | high polyreactivity
28 | QVQLVESVGGLVQAGGSLRLSCAASGFTFKYYAMGWYRQAPGKERELVAAITGTGGSTYYADSVKGRFTISRDTAKNTVYLLMNSLKPEDTAVYYCNAGSARGYVPYDSFAYDYWGQGTQVTVSS | low polyreactivity
29 | QVQLVDSGGGLVQAGGSHRLSCAASGFTFPYNAMGWYRQAPGKERELVAANSSTGGITYYADSVKGRFTISRDNAKNTVYLQMNSLKPEDTAVYYCGWYDYWGQGTQVTVSS | low polyreactivity
30 | QVQLVESGGGLVQAGGSLRLSCAASGIIFKWYGMGGYRQAPGKERELVAGITWRTGSTYYADSVKGRFTISRDNAKNTVYLQMNSLKPEDTAVYYCAARLYTYPKGKYWGQGTQVTVSS | high polyreactivity
31 | QVQLVESGGGLVQAGGSLRLSCAASGFIFSYYAMGWYRQAPGKERELVAAINYSGGRTYYADSVKGRFTISRDYAKNTVYLQMNSLKPEDTAVYYCNAVTFGRRAFDYWGQGTQVTVSS | high polyreactivity
32 | QVQLVESGGGLVQAGGSLRLSCAASGFIFGRNVMGWYRQAPGKERELVASISRSGGRTTYADSVKGRFTISRDNAKNTVYLLMNSLKPEDTAVYYCAKGQYQWERYVSHADYDWGQVTQVTVSS | high polyreactivity
33 | QMQLQESGGGLVQAGGSLRLSCAPSGTIIRVRYMGWHRQAPGKDRELVAGINGGTTTYNSDSVIGRFTISRDNANNTVFLQMNSLKPDDTAVYKCAAGASRLTYYDYWGQGTQVTVSS | low polyreactivity
34 | QVQLVESGGGLVQAGGSLRLSCAASGSTYVSNAMGWYRQAPGKERELVAAISTSGGTTYYADSVKGRFTISRDNAKNTVYLQMNSLKPEDTAVYYCAADYKAYGRSYDYWGQGTQVTVSS | low polyreactivity
35 | QVQLVESGGGLVQAGGSLRLSCAASGFTINFYAMGWYRQAPGKERELVAAITASGGGSTYYADSVKGRFTISRDNAKNTVYLQMNSLKPEDTAVYYCNADYTGSFYTYDYWGQGTQVTVSS | low polyreactivity
36 | QVQLVESGGGLVQAGGSLRLSCAASGRILFGYAMGWYRQAPGKERELVADITSTGSTNYADSVKGRFTISRDNAKNSVYLQMNSLKPEDTAVYYCNARRESYYQRYRVDYWGQGTQVTVSS | low polyreactivity
37 | QVQLVESGGGLVQAGGSLRLSCAASGIIFSNYAMGWYRQAPGKERDLVAAITRSGGRTYYADSVKGRFTISRDNAKNTVYLQMNSLKPEDTAVYYCAATGRSGVLSSYYYWGQGTQVTVSS | high polyreactivity
38 | QVQLVESGGGLVQAGGSLRLSCAASGFIFRDYAMGWYRQAPGKERELVAAIDYSGGSTNYADSVKGRFTISRDNAKNTVYLQMNSLKPEDTAVYYCNAEYTWHRGYEYWGQGTQVTVSS | low polyreactivity
39 | QVQLVESGGGLVQAGGSLRLICAASGFTFSWYVMGWYRQAPGKERELVATITNRGGSTYYADSVKGRFTISRDTAKNTVYLQMNSLKPEDTAVYYCAARKKGSRVGYDYCGQGTQVTVSS | high polyreactivity
40 | QVQLVESGGGLVQAGGSLRLSCAASGRIFTVYAMGWYRQAPGKERELVAAITRGGGGTYYADSVKGRFTISRDNAKNTVYFQMNSLKPEETAVYYCAAAYRGDRWSYRVDYWGQGTQVTVSS | high polyreactivity
41 | QVQLVESGGGLVQAGGSLRLSCAASGRTFRSNAMGGTTQAPGKERQLVAGITKSGGNTYYADSVKGRFTISRDNAKNTVYLQMTSLKPEDTAVYYCATRYYPLVNYLGYDYWGQGTQVTVSW | low polyreactivity
42 | QVQLVESGGGLVQAGGSLRLSCAASGSTFEPNGMGWYRQAPGKETELVAVITSGRTNYADSVKGSFTISRDNAKNTVYLQMNSLKPEDTAVYYCNAEGNGIYDYWGQGTQVTVSS | low polyreactivity
43 | QVQLEESAGGLVQAGGSLRLSCAASGSSFTSYAMGWYRQAPGKERELVAAITSGGSTTYADSVKGRFTISRDNEKNTVYLQMNSLKPEDTAVYYCNAKWYGYLTRDAYRYRYTYDYWGQGTQVTVSS | low polyreactivity

— the nanobody polyreactivity screen of Harvey et al. (2022)
